In paper PMC13355702:

Columns and labels:
[1] = biological target: BcM60K (metallopeptidase domain of the Bacteroides caccae peptidase_M60 O-glycopeptidase BcM60K) (Bacteroides caccae)

KM of cleavage of the FRET substrate (global fit of progress curves) (BT4244) [µM] | KM of cleavage of the FRET substrate (global fit of progress curves) [1] [µM] | Substance
5.6 |  | FRET substrate mNeonGreen-MUC2_R1 linker-mScarlet-I, Tn-modified (domain or fragment)
2.9 | 7.8 | FRET substrate mNeonGreen-MUC5AC_R2 linker-mScarlet-I, Tn-modified (domain or fragment)

Further lines, the substance ahead of its results:

Substance | KM of cleavage of the FRET substrate (global fit of progress curves) (BT4244) [µM] | KM of cleavage of the FRET substrate (global fit of progress curves) [1] [µM]
FRET substrate mNeonGreen-IgA1 hinge linker-mScarlet-I, Tn-modified (domain or fragment) | 1 | 
FRET substrate mNeonGreen-MUC5AC_R2 linker-mScarlet-I, 3SC1-modified (domain or fragment) |  | 7.6
FRET substrate mNeonGreen-MUC5AC_R2 linker-mScarlet-I, 6SC1-modified (domain or fragment) |  | 2.5
FRET substrate mNeonGreen-MUC5AC_R2 linker-mScarlet-I, C1-modified (domain or fragment) | 2.9 | 6.2
FRET substrate mNeonGreen-MUC5AC_R2 linker-mScarlet-I, C2-modified (domain or fragment) |  | 4.5
